From patent US20260193293A1, “PEPTIDES CAPABLE OF INHIBITING PROTEIN-PROTEIN INTERACTIONS AT GABAB1A SUBUNIT AND USES THEREOF” (UNIVERSITY OF COPENHAGEN, priority 2022, published 2026)

Target: Sushi domains (SD1/2) protein of the GABAB1a (GB1a) subunit, recombinant
Test: FP competition

Chain of Sushi domains (SD1/2) protein of the GABAB1a (GB1a) subunit, recombinant (Q9Z0U4 29-158): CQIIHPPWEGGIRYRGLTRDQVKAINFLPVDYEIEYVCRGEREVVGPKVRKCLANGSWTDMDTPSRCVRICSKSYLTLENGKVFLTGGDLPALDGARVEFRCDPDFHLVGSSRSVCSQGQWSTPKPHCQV

Row | Binder | Ki
1 | Ac-DSADAEEDDSDVWWGGADTDYAD-NH2 | 513 nM
2 | Ac-SADAEEDDSDVWWGGADTDYAD-NH2 | 284 nM
3 | Ac-ADAEEDDSDVWWGGADTDYAD-NH2 | 500 nM
4 | Ac-DAEEDDSDVWWGGADTDYAD-NH2 | 247 nM
5 | Ac-EEDDSDVWWGGADTDYADG-NH2 | 343 nM
6 | Ac-EEDDSDVWWGGADTDYADGG-NH2 | 341 nM
7 | Ac-EEDDSDVWWGGADTDYADGGE-NH2 | 351 nM
8 | Ac-EEDDSDVWWGGADTDYADGGED-NH2 | 356 nM
9 | Ac-EEDDSDVWWGGADTDYADGGEDK-NH2 | 392 nM
10 | Ac-VWWGGADTDYAD-NH2 | 60800 nM
11 | Ac-DVWWGGADTDYAD-NH2 | 6100 nM
12 | Ac-SDVWWGGADTDYAD-NH2 | 2950 nM
13 | Ac-DSDVWWGGADTDYAD-NH2 | 1500 nM
14 | Ac-DDSDVWWGGADTDYAD-NH2 | 517 nM
15 | Ac-EDDSDVWWGGADTDYAD-NH2 | 281 nM
16 | Ac-EEDDSDVWWGGADTDYA-NH2 | 299 nM
17 | Ac-EEDDSDVWWGGADTDY-NH2 | 301 nM
18 | Ac-EEDDSDVWWGGADTD-NH2 | 341 nM
19 | Ac-EEDDSDVWWGGADT-NH2 | 585 nM
20 | Ac-EEDDSDVWWGGAD-NH2 | 534 nM
21 | Ac-EEDDSDVWWGGA-NH2 | 1020 nM
22 | Ac-EEDDSDVWWGG-NH2 | 1750 nM
23 | Ac-EEDDSDVWWG-NH2 | 12800 nM
24 | Ac-EEDDSDVWW-NH2 | 1790 nM
25 | Ac-PTTETEFIAWGPTGDED-NH2 | 30 nM

Row | Binder | Ki
26 | Ac-TTETEFIAWGPTGDED-NH2 | 32 nM
27 | Ac-TETEFIAWGPTGDEDA-NH2 | 36 nM
28 | Ac-TETEFIAWGPTGDEDAL-NH2 | 47 nM
29 | Ac-IAWGPTGDED-NH2 | 38000 nM
30 | Ac-FIAWGPTGDED-NH2 | 118 nM
31 | Ac-EFIAWGPTGDED-NH2 | 112 nM
32 | Ac-TEFIAWGPTGDED-NH2 | 102 nM
33 | Ac-TETEFIAWGPTGDE-NH2 | 69 nM
34 | Ac-TETEFIAWGPTGD-NH2 | 97 nM
35 | Ac-TETEFIAWGPTG-NH2 | 248 nM
36 | Ac-TETEFIAWGPT-NH2 | 236 nM
37 | Ac-TETEFIAWGP-NH2 | 574 nM
38 | Ac-TETEFIAWG-NH2 | 2470 nM
39 | Ac-TETEFIAW-NH2 | 1010 nM
40 | Ac-SSQYPWAIVWGPTVSREDG-NH2 | 29900 nM
41 | Ac-SQYPWAIVWGPTVSREDG-NH2 | 762 nM
42 | Ac-QYPWAIVWGPTVSREDG-NH2 | 650 nM
43 | Ac-YPWAIVWGPTVSREDG-NH2 | 433 nM
44 | Ac-PWAIVWGPTVSREDGG-NH2 | 561 nM
45 | Ac-PWAIVWGPTVSREDGGD-NH2 | 716 nM
46 | Ac-PWAIVWGPTVSREDGGDP-NH2 | 597 nM
47 | Ac-PWAIVWGPTVSREDGGDPN-NH2 | 579 nM
48 | Ac-PWAIVWGPTVSREDGGDPNS-NH2 | 706 nM
49 | Ac-VWGPTVSREDG-NH2 | 1740 nM
50 | Ac-IVWGPTVSREDG-NH2 | 15700 nM
